Patent publication US20110091971A1, “Differentiation of Pluripotent Stem Cells” (priority 2008, published 2011)

B1: ACTN58: activin A variant peptide, SEQ ID 59 (protein)
chain: GLECDGKVNICCKKQSFGQTKDIGWNDWIIAPSGYHGGGCTGECPSHIAGTSGSSLSFHSTVINHYRMRGHSPWANLKSCCSPTKLRPMSMLYYDDGQNIIKKDIQNMKVEECGCT
B2: ACTN73: activin A variant peptide, SEQ ID 74 (protein)
chain: GLECDGKVNICCKKQSFGQAKDIGWNDWIIAPSGYHGGGCSGECPSHIAGTSGSSLSFHSTVINHYRMRGHSPFANLKSCCSPTKLRPMSMLYYDDGQNIIKKDIQGMVVEECGCT
B3: ACTN86: activin A variant peptide, SEQ ID 87 (protein)
chain: GLECDGKVNICCKKQSFGKTKDIGWNDWIIAPSGYHGGGCSGECPSHIAGTSGSSLSFHSTVINHYRMRGHSPWANLKSCCSPTKLRPMSMLYYDDGQNIIKKDIQNMVVEECGCT
B4: ACTN70: activin A variant peptide, SEQ ID 71 (protein)
chain: GLECDGKVNICCKKQLFGQAKDIGWNDWIIAPSGYHGGGCSGECPSHIAGTSGSSLSFHSTVINHYRMRGHSPVANLKSCCSPTKLRPMSMLYYDDGQNIIKKDIQGMVVEECGCT
B5: ACTN88: activin A variant peptide, SEQ ID 89 (protein)
chain: GLECDGKVNICCKKQSFGQTKDIGWNDWIIAPSGYHGGGCSGECPSHIAGTSGSSLSFHSTVINHYRMRGHSPWANLKSCCSPTKLRPMSMLYYDDGQNIIKKDIQNMVVEECGCT
B6: ACTN67: activin A variant peptide, SEQ ID 68 (protein)
chain: GLECDGKVNICCKKQSFGQTKDIGWNDWIIAPSGYHGGGCSGECPSHIAGTSGSSLSFHSTVINHYRMRGHSPWANLKSCCSPTKLRPMSMLYYDDGQNIIKKDIQNMKVEECGCT
B7: ACTN66: activin A variant peptide, SEQ ID 67 (protein)
chain: GLECDGKVNICCKKQMFGQAKDIGWNDWIIAPSGYHGGGCTGECPSHIAGTSGSSLSFHSTVINHYRMRGHSPWANLKSCCSPTKLRPMSMLYYDDGQNIIKKDIQNMVVEECGCT
B8: ACTN83: activin A variant peptide, SEQ ID 84 (protein)
chain: GLECDGKVNICCKKQSFGRAKDIGWNDWIIAPSGYHGGGCTGECPSHIAGTSGSSLSFHSTVINHYRMRGHSPFANLKSCCSPTKLRPMSMLYYDDGQNIIKKDIQGMKVEECGCT
B9: ACTN68: activin A variant peptide, SEQ ID 69 (protein)
chain: GLECDGKVNICCKKQSFGKAKDIGWNDWIIAPSGYHGGGCTGECPSHIAGTSGSSLSFHSTVINHYRMRGHSPFANLKSCCSPTKLRPMSMLYYDDGQNIIKKDIQGMKVEECGCT
B10: ACTN80: activin A variant peptide, SEQ ID 81 (protein)
chain: GLECDGKVNICCKKQSFGQTKDIGWNDWIIAPSGYHGGGCSGECPSHIAGTSGSSLSFHSTVINHYRMRGHSPWANLKSCCAPTKLRPMSMLYYDDGQNIIKKDIQNMKVEECGCV
B11: ACTN30: activin A variant peptide, SEQ ID 31 (protein)
chain: GLECDGKVNYCCKKQNFVSFKDIGWNDWIIAPSGYHANKCSGLCPSHIAGTSGSSLSFHSTVINHYRMRGHSPFSKMGACCVPTKLRPMSMLYYDDGQNIIKKDIQNMIVEECGCS
B12: ACTN37: activin A variant peptide, SEQ ID 38 (protein)
chain: GLECDGKVNLCCKKQDFVSFKDIGWNDWIIAPSGYHANRCSGKCPSHIAGTSGSSLSFHSTVINHYRMRGHSPFSDMGACCIPTKLRPMSMLYYDDGQNIIKKDIQNMIVEECGCS
B13: ACTN34: activin A variant peptide, SEQ ID 35 (protein)
chain: GLECDGKVNYCCKKQLFVSFKDIGWNDWIIAPSGYHANHCTGKCPSHIAGTSGSSLSFHSTVINHYRMRGHSPFSDLGSCCVPTKLRPMSMLYYDDGQNIIKKDIQNMIVEECGCS
B14: ACTN31: activin A variant peptide, SEQ ID 32 (protein)
chain: GLECDGKVNTCCKKQLFVSFKDIGWNDWIIAPSGYHANHCSGKCPSHIAGTSGSSLSFHSTVINHYRMRGHSPFSDMGSCCIPTKLRPMSMLYYDDGQNIIKKDIQNMIVEECGCS
B15: ACTN2: activin A variant peptide, SEQ ID 3 (protein)
chain: GLECDGKVNLCCKKQNFVSFKDIGWNDWIIAPSGYHANECTGKCPSHIAGTSGSSLSFHSTVINHYRMRGHSPFSDLGSCCIPTKLRPMSMLYYDDGQNIIKKDIQNMIVEECGCS
B16: ACTN33: activin A variant peptide, SEQ ID 34 (protein)
chain: GLECDGKVNLCCKKQNFVSFKDIGWNDWIIAPSGYHANECMGKCPSHIAGTSGSSLSFHSTVINHYRMRGHSPFSDMGACCIPTKLRPMSMLYYDDGQNIIKKDIQNMIVEECGCS

Tested on: H1 or H9 human embryonic stem cells
Assay: Activin A bioassay: differentiation of human embryonic stem cells to definitive endoderm, cell number and SOX17 intensity by high content analysis (96-well, four days);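 for Cell Number average: Raw total cell count per well from high content imaging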;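 for Sox 17 Intensity average: total fluorescence of the cell multiplied by cell area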
Type: cell-based
Summary of the method: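 Read-out was cell count and integrated SOX17 immunofluorescence by high-content imaging, with each well divided by the mean of the 100 ng/ml activin A control. Over the four-day culture, test samples were given in DMEM:F12 with 0.5% FCS plus 20 ng/ml Wnt3a for the first two days and in 2% FCS alone for the last two. Cells were H1 or H9 hESC clusters grown on Matrigel.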

[1] = supernatant concentration 10x, assay dilution 1:20, assay plates #007, #009, #010
[2] = supernatant concentration 10x, assay dilution 1:20, control = R&D Sys Activin A 100 ng/ml on same plate
[3] = supernatant concentration 50x, assay dilution 1:20, assay plates #008, #009
[4] = supernatant concentration 50x, assay dilution 1:20, control = R&D Sys Activin A 100 ng/ml on same plate
[5] = concentrated supernatant (10x; ACTD3 4x), assay dilution 1:20
[6] = supernatant concentration 1x, assay dilution 1:20
[7] = supernatant concentration 10x, assay dilution 1:20
[8] = supernatant concentration 10x, assay dilution 1:40

Row | Molecule | Cell Number average [1] | Sox 17 Intensity average [1] | Sox 17 Intensity % of control [2] [%] | Cell Number average [3] | Sox 17 Intensity average [3] | Sox 17 Intensity % of control [4] [%] | Cell Number average [5] | Sox 17 Intensity average [5] | Sox 17 Intensity % of control (concentrated supernatant (10x; ACTD3 4x), assay dilution 1:20, control = R&D Sys Activin A 100 ng/ml) [%] | Cell Number average [6] | Sox 17 Intensity average [6] | Sox 17 Intensity % of control (supernatant concentration 1x, assay dilution 1:20, control = R&D Sys Activin A 100 ng/ml on same plate) [%] | Cell Number average [7] | Sox 17 Intensity average [7] | Cell Number average [8] | Sox 17 Intensity average [8] | Sox 17 Intensity % of control (supernatant concentration 10x, assay dilution 1:40, control = R&D Sys Activin A 100 ng/ml on same plate) [%]
1 | B1 | 11078 | 6.70E+05 | 3.0 | 13214 | 3.78E+06 | 6.8 | – | – | – | – | – | – | – | – | – | – | –
2 | B2 | 10569 | 8.27E+05 | 3.7 | 16351 | 3.13E+06 | 5.7 | – | – | – | – | – | – | – | – | – | – | –
3 | B3 | 11821 | 7.45E+05 | 3.4 | 17034 | 2.34E+06 | 4.2 | – | – | – | – | – | – | – | – | – | – | –
4 | B4 | 12551 | 9.67E+05 | 4.4 | 16071 | 3.20E+06 | 5.8 | – | – | – | – | – | – | – | – | – | – | –
5 | B5 | 11583 | 6.21E+05 | 2.8 | 15317 | 2.87E+06 | 5.2 | – | – | – | – | – | – | – | – | – | – | –
6 | B6 | 12653 | 4.44E+05 | 2.0 | 14821 | 3.50E+06 | 6.3 | – | – | – | – | – | – | – | – | – | – | –
7 | B7 | 13360 | 4.84E+05 | 2.2 | 16460 | 3.39E+06 | 6.1 | – | – | – | – | – | – | – | – | – | – | –
8 | B8 | 12084 | 5.39E+05 | 2.4 | 15829 | 9.01E+06 | 16.3 | – | – | – | – | – | – | – | – | – | – | –
9 | B9 | 13395 | 1.43E+06 | 6.5 | 15926 | 1.83E+06 | 3.3 | – | – | – | – | – | – | – | – | – | – | –
10 | B10 | 9898 | 4.08E+05 | 1.8 | 14686 | 3.52E+06 | 6.4 | – | – | – | – | – | – | – | – | – | – | –
11 | B11 | 7357 | 6.73E+05 | 3.0 | 5013 | 2.87E+06 | 5.2 | – | – | – | – | – | – | – | – | – | – | –
12 | B12 | 3957 | 1.35E+06 | 6.1 | 2902 | 5.89E+06 | 10.6 | – | – | – | – | – | – | – | – | – | – | –
13 | B13 | 10063 | 5.69E+07 | 257.4 | 12163 | 1.47E+08 | 266.9 | 11794 | 8.08E+07 | 185 | – | – | – | – | – | – | – | –
14 | B14 | 10450 | 5.44E+07 | 246.3 | 11148 | 1.49E+08 | 269.7 | – | – | – | – | – | – | – | – | – | – | –
15 | B15 | – | – | 12.5 | – | – | – | – | – | – | 4057 | 1.756E+07 | 9.5 | 2965 | 2.299E+07 | 2232 | 1.280E+07 | 7.0
16 | B16 | 3588 | 2.15E+06 | 9.7 | 3383 | 6.50E+06 | 11.8 | – | – | – | – | – | – | – | – | – | – | –
